The results in this text go back to article PMC11612440 (2024).

Assay [1] concerns the target T1, BCL11B protein, MBP-tag-fused recombinant (pETMBP.3C-Bcl11b) (mouse, UniProt Q99PV8 1-884).
T1 chain: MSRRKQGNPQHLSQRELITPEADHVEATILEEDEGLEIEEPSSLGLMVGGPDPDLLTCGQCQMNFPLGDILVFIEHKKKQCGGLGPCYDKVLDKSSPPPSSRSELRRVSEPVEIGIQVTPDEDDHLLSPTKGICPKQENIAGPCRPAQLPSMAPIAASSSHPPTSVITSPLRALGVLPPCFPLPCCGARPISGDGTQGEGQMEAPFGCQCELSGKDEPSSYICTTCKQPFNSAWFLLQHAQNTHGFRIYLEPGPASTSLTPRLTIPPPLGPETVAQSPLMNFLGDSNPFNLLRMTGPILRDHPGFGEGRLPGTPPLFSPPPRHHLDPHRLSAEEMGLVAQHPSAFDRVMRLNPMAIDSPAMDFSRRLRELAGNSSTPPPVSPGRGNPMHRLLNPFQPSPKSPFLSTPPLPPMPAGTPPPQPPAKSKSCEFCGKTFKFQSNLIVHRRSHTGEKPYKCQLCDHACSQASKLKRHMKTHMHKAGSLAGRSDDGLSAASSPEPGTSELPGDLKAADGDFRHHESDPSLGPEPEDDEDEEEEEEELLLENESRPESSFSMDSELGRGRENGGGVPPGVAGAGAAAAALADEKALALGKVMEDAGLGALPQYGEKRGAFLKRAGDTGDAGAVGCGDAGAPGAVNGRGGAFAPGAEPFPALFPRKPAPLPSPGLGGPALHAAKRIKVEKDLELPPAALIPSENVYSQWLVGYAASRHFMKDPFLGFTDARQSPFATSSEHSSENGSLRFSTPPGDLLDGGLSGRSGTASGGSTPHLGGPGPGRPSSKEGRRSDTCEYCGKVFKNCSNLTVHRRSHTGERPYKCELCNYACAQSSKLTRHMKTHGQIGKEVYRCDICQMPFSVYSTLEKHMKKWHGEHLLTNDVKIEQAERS
In words: SPR. (In general: Surface plasmon resonance follows binding to a sensor surface in real time, without labels.)

Assay [2] addresses T1, BCL11B protein, MBP-tag-fused …. The experiment in a line: SPR.

Where two headings read alike, the source gives them in different places.

B1: MBD3, MBP-tag-fused recombinant (pETMBP.3C-Mbd3) (natural protein)
chain: MERKRWECPALPQGWEREEVPRRSGLSAGHRDVFYYSPSGKKFRSKPQLARYLGGSMDLSTFDFRTGKMLMNKMNKSRQRVRYDSSNQVKGKPDLNTALPVRQTASIFKQPVTKITNHPSNKVKSDPQKAVDQPRQLFWEKKLSGLSAFDIAEELVRTMDLPKGLQGVGPGCTDETLLSAIASALHTSTLPITGQLSAAVEKNPGVWLNTAQPLCKAFMVTDDDIRKQEELVQQVRKRLEEALMADMLAHVEELARDGEAPLDKACAEEEEEEEEEEEEPEPERV
For orientation: Kd means the constant that tells how readily two partners part at equilibrium. Take B1: the Kd in assay [1] worked out at 2.42 nM.

B2: β-catenin, MBP-tag-fused recombinant (pETMBP.3C-β-catenin) (natural protein)
chain: MATQADLMELDMAMEPDRKAAVSHWQQQSYLDSGIHSGATTTAPSLSGKGNPEEEDVDTSQVLYEWEQGFSQSFTQEQVADIDGQYAMTRAQRVRAAMFPETLDEGMQIPSTQFDAAHPTNVQRLAEPSQMLKHAVVNLINYQDDAELATRAIPELTKLLNDEDQVVVNKAAVMVHQLSKKEASRHAIMRSPQMVSAIVRTMQNTNDVETARCTAGTLHNLSHHREGLLAIFKSGGIPALVKMLGSPVDSVLFYAITTLHNLLLHQEGAKMAVRLAGGLQKMVALLNKTNVKFLAITTDCLQILAYGNQESKLIILASGGPQALVNIMRTYTYEKLLWTTSRVLKVLSVCSSNKPAIVEAGGMQALGLHLTDPSQRLVQNCLWTLRNLSDAATKQEGMEGLLGTLVQLLGSDDINVVTCAAGILSNLTCNNYKNKMMVCQVGGIEALVRTVLRAGDREDITEPAICALRHLTSRHQEAEMAQNAVRLHYGLPVVVKLLHPPSHWPLIKATVGLIRNLALCPANHAPLREQGAIPRLVQLLVRAHQDTQRRTSMGGTQQQFVEGVRMEEIVEGCTGALHILARDVHNRIVIRGLNTIPLFVQLLYSPIENIQRVAAGVLCELAQDKEAAEAIEAEGATAPLTELLHSRNEGVATYAAAVLFRMSEDKPQDYKKRLSVELTSSLFRTEPMAWNETADLGLDIGAQGEALGYRQDDPSYRSFHSGGYGQDALGMDPMMEHEMGGHHPGADYPVDGLPDLGHAQDLMDGLPPGDSNQLAWFDTDL
For B2, the dissociation constant Kd in assay [2] was 0.609 nM.
